Measured values as given in the supplement of paper PMC5998384.

What was measured:
HeLa Kyoto [1] = assay: solubility in G1/S (NP-40 vs SDS abundance) (log2 ratio); higher = more soluble; conditions: cell cycle stage: G1/S
HeLa Kyoto [2] = assay: solubility change mitosis vs G1/S (difference of NP-40 vs SDS log2 ratios) (log2 ratio difference); higher = more soluble in mitosis
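Wherever solubility change mitosis vs G1/S (difference of NP-40 vs SDS log2 ratios) is given: synchronized HeLa Kyoto cells (double thymidine block for G1/S, nocodazole release for mitosis), protein amounts in NP-40 versus SDS lysates quantified by mass spectrometry, three biological replicates.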
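Wherever solubility in G1/S (NP-40 vs SDS abundance) is given: HeLa Kyoto cells arrested at G1/S by double thymidine block, proteins quantified by TMT10plex mass spectrometry in mild NP-40 versus SDS extracts, three biological replicates.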

| Sequence | solubility in G1/S (log2) (HeLa Kyoto [1]) | solubility change mitosis (log2) (HeLa Kyoto [2]) |
| --- | --- | --- |
| MELPAVGEHVFAVESIEKKRIRKGRVEYLVKWRGWSPKYNTWEPEENILDPRLLIAFQNRERQEQLMGYRKRGPKPKPLVVQVPTFARRSNVLTGLQDSSTDNRAKLDLGAQGKGQGHQYELNSKKHHQYQPHSKERAGKPPPPGKSGKYYYQLNSKKHHPYQPDPKMYDLQYQGGHKEAPSPTCPDLGAKSHPPDKWAQGAGAKGYLGAVKPLAGAAGAPGKGSEKGPPNGMMPAPKEAVTGNGIGGKMKIVKNKNKNGRIVIVMSKYMENGMQAVKIKSGEVAEGEARSPSHKKRAADERHPPADRTFKKAAGAEEKKVEAPPKRREEEVSGVSDPQPQDAGSRKLSPTKEAFGEQPLQLTTKPDLLAWDPARNTHPPSHHPHPHPHHHHHHHHHHHHAVGLNLSHVRKRCLSETHGEREPCKKRLTARSISTPTCLGGSPAAERPADLPPAAALPQPEVILLDSDLDEPIDLRCVKTRSEAGEPPSSLQVKPETPASAAVAVAAAAAPTTTAEKPPAEAQDEPAESLSEFKPFFGNIIITDVTANCLTVTFKEYVTV [CBX4] | -0.386 | 0.583 |
| MVVLRSSLELHNHSAASATGSLDLSSDFLSLEHIGRRRLRSAGAAQKKPAATTAKAGDGSSVKEVETYHRTRALRSLRKDAQNSSDSSFEKNVEITEQLANGRHFTRQLARQQADKKKEEHREDKVIPVTRSLRARNIVQSTEHLHEDNGDVEVRRSCRIRSRYSGVNQSMLFDKLITNTAEAVLQKMDDMKKMRRQRMRELEDLGVFNETEESNLNMYTRGKQKDIQRTDEETTDNQEGSVESSEEGEDQEHEDDGEDEDDEDDDDDDDDDDDDDDEDDEDEEDGEEENQKRYYLRQRKATVYYQAPLEKPRHQRKPNIFYSGPASPARPRYRLSSAGPRSPYCKRMNRRRHAIHSSDSTSSSSSEDEQHFERRRKRSRNRAINRCLPLNFRKDELKGIYKDRMKIGASLADVDPMQLDSSVRFDSVGGLSNHIAALKEMVVFPLLYPEVFEKFKIQPPRGCLFYGPPGTGKTLVARALANECSQGDKRVAFFMRKGADCLSKWVGESERQLRLLFDQAYQMRPSIIFFDEIDGLAPVRSSRQDQIHSSIVSTLLALMDGLDSRGEIVVIGATNRLDSIDPALRRPGRFDREFLFSLPDKEARKEILKIHTRDWNPKPLDTFLEELAENCVGYCGADIKSICAEAALCALRRRYPQIYTTSEKLQLDLSSINISAKDFEVAMQKMIPASQRAVTSPGQALSTVVKPLLQNTVDKILEALQRVFPHAEFRTNKTLDSDISCPLLESDLAYSDDDVPSVYENGLSQKSSHKAKDNFNFLHLNRNACYQPMSFRPRILIVGEPGFGQGSHLAPAVIHALEKFTVYTLDIPVLFGVSTTSPEETCAQVIREAKRTAPSIVYVPHIHVWWEIVGPTLKATFTTLLQNIPSFAPVLLLATSDKPHSALPEEVQELFIRDYGEIFNVQLPDKEERTKFFEDLILKQAAKPPISKKKAVLQALEVLPVAPPPEPRSLTAEEVKRLEEQEEDTFRELRIFLRNVTHRLAIDKRFRVFTKPVDPDEVPDYVTVIKQPMDLSSVISKIDLHKYLTVKDYLRDIDLICSNALEYNPDRDPGDRLIRHRACALRDTAYAIIKEELDEDFEQLCEEIQESRKKRGCSSSKYAPSYYHVMPKQNSTLVGDKRSDPEQNEKLKTPSTPVACSTPAQLKRKIRKKSNWYLGTIKKRRKISQAKDDSQNAIDHKIESDTEETQDTSVDHNETGNTGESSVEENEKQQNASESKLELRNNSNTCNIENELEDSRKTTACTELRDKIACNGDASSSQIIHISDENEGKEMCVLRMTRARRSQVEQQQLITVEKALAILSQPTPSLVVDHERLKNLLKTVVKKSQNYNIFQLENLYAVISQCIYRHRKDHDKTSLIQKMEQEVENFSCSR [ATAD2] | -3.07 | 2.36 |
| MTHTRRKSLPMLSSGLTGRREPLQMEDSNMEQGVEGVEPGMPESPGHLTGRRKNYPLRKRPLVPEKPKACKVLLTRLENVAGPRSADEADELPPDLPKPPSPAPSSEDPGLAQPRKRRLASLNAEALNNLLLEREDTSSLAGTRRSRAGDPHRSRDRDRATGGWSSSKKRPRLGDLGGGSRDLSPEPAPDEGPRRDGDPAPKRLASLNAAAFLKLSQERELPLRLPRAHAEVDGRSTEPPAPKAPRPKWPKVNGKNYPKAWQGASSGEAAGPPGWQGCPDEPWPSATPCGPSVQPSHQPLSKALESPLGLRPHLPLLMGGQAALKPEPGRPGEESPAPKQELHQPSFPTPQLSPLPMPGNPADYNGLCVGPELTALGSFYLYCGQEGLQCGGYSPCPMLPEGKLSPVAAPHEEGLLLAPSSVPSGTPFQHPPWGSSRYCSSEDTGVNGYSICGVLPLSVTHAGTTCGGCPYKMPFAAEGCRSLGQLEFPLPEAGHPASPAHPLLGCPVPSVPPAAEPVPHLQTPTSEPQTVARACPQSAKPPSGSKSGLRTGSSCRHTARSKAARRPSHPKQPRVQRPRPRRRRRRRTNGWVPVGAACEKAVYVLDEPEPAIRKSYQAVERHGETIRVRDTVLLKSGPRKTSTPYVAKISALWENPESGELMMSLLWYYRPEHLQGGRSPSMHEPLQNEVFASRHQDQNSVACIEEKCYVLTFAEYCRFCAMAKRRGEGLPSRKTALVPPSADYSTPPHRTVPEDTDPELVFLCRHVYDFRHGRILKNPQ [BAHD1] | -0.799 | 0.738 |
| MRRAELAGLKTMAWVPAESAVEELMPRLLPVEPCDLTEGFDPSVPPRTPQEYLRRVQIEAAQCPDVVVAQIDPKKLKRKQSVNISLSGCQPAPEGYSPTLQWQQQQVAQFSTVRQNVNKHRSHWKSQQLDSNVTMPKSEDEEGWKKFCLGEKLCADGAVGPATNESPGIDYVQIGFPPLLSIVSRMNQATVTSVLEYLSNWFGERDFTPELGRWLYALLACLEKPLLPEAHSLIRQLARRCSEVRLLVDSKDDERVPALNLLICLVSRYFDQRDLADEPS [GEMIN2] | 0.59 | 0.437 |
| MPALACLRRLCRHVSPQAVLFLLFIFCLFSVFISAYYLYGWKRGLEPSADAPEPDCGDPPPVAPSRLLPLKPVQAATPSRTDPLVLVFVESLYSQLGQEVVAILESSRFKYRTEIAPGKGDMPTLTDKGRGRFALIIYENILKYVNLDAWNRELLDKYCVAYGVGIIGFFKANENSLLSAQLKGFPLFLHSNLGLKDCSINPKSPLLYVTRPSEVEKGVLPGEDWTVFQSNHSTYEPVLLAKTRSSESIPHLGADAGLHAALHATVVQDLGLHDGIQRVLFGNNLNFWLHKLVFVDAVAFLTGKRLSLPLDRYILVDIDDIFVGKEGTRMKVEDVKALFDTQNELRAHIPNFTFNLGYSGKFFHTGTNAEDAGDDLLLSYVKEFWWFPHMWSHMQPHLFHNQSVLAEQMALNKKFAVEHGIPTDMGYAVAPHHSGVYPVHVQLYEAWKQVWSIRVTSTEEYPHLKPARYRRGFIHNGIMVLPRQTCGLFTHTIFYNEYPGGSSELDKIINGGELFLTVLLNPISIFMTHLSNYGNDRLGLYTFKHLVRFLHSWTNLRLQTLPPVQLAQKYFQIFSEEKDPLWQDPCEDKRHKDIWSKEKTCDRFPKLLIIGPQKTGTTALYLFLGMHPDLSSNYPSSETFEEIQFFNGHNYHKGIDWYMEFFPIPSNTTSDFYFEKSANYFDSEVAPRRAAALLPKAKVLTILINPADRAYSWYQHQRAHDDPVALKYTFHEVITAGSDASSKLRALQNRCLVPGWYATHIERWLSAYHANQILVLDGKLLRTEPAKVMDMVQKFLGVTNTIDYHKTLAFDPKKGFWCQLLEGGKTKCLGKSKGRKYPEMDLDSRAFLKDYYRDHNIELSKLLYKMGQTLPTWLREDLQNTR [NDST1] | -0.0442 | -0.0111 |
| MTSFEDADTEETVTCLQMTVYHPGQLQCGIFQSISFNREKLPSSEVVKFGRNSNICHYTFQDKQVSRVQFSLQLFKKFNSSVLSFEIKNMSKKTNLIVDSRELGYLNKMDLPYRCMVRFGEYQFLMEKEDGESLEFFETQFILSPRSLLQENNWPPHRPIPEYGTYSLCSSQSSSPTEMDENES [TIFA] | 0.0872 | -0.224 |
| MVAWRSAFLVCLAFSLATLVQRGSGDFDDFNLEDAVKETSSVKQPWDHTTTTTTNRPGTTRAPAKPPGSGLDLADALDDQDDGRRKPGIGGRERWNHVTTTTKRPVTTRAPANTLGNDFDLADALDDRNDRDDGRRKPIAGGGGFSDKDLEDIVGGGEYKPDKGKGDGRYGSNDDPGSGMVAEPGTIAGVASALAMALIGAVSSYISYQQKKFCFSIQQGLNADYVKGENLEAVVCEEPQVKYSTLHTQSAEPPPPPEPARI [CD99L2] | -0.143 | -0.147 |
| MAASRSAGEAGPGGSQGRVVRMKRRGGRGPRRGPAGGGEKALKRLKLAVEEFVHATSEGEAPGGCEGRGAPVSFRPGGRKSRKELRKEKRHLRKARRLQRTAGPEQGPGLGGRSGAEEASGHRQDTEERARPAPSRDPSPPRKPRPSRVKAKATAATAKTRPSAAATAAARKRALLAANEEEDREIRKLERCLGLNKRKKKDGSSSVPLSFARDGLDYILGALESGKNSGLYDSSGEEEEDAGQTLPESDLESDSQDESEEEEEGDVEKEKKAQEAEAQSEDDDEDTEEEQGEEKEKGAQEKRRGKRVRFAEDEEKSENSSEDGDITDKSLCGSGEKYIPPHVRQAEETVDFKKKEELERLKKHVKGLLNRLSEPNMASISGQLEELYMAHSRKDMNDTLTSALMGACVTASAMPSRLMMEHVLLVSILHHTVGIEVGAHFLEAVVRKFDAIYKYGSEGKECDNLFTVIAHLYNFHVVQSLLIFDILKKLIGTFTEKDIELILLMLKNVGFSLRKDDALSLKELITEAQTKASGAGSEFQDQTRIRFMLETMLALKNNDMRKIPGYDPEPVEKLRKLQRALVRNAGSGSETQLRVSWDSVLSAEQTGRWWIVGSAWSGAPMIDNSHHTHLQKQLVGTVSSKILELARKQRMNTDIRRNIFCTIMTSEDFLDAFEKLLKLGLKDQQEREIIHVLMDCCLQEKTYNPFYAFLASKFCEYERRFQMTFQFSIWDKFRDLENLPATNFSNLVHLVAHLLKTKSLSLSILKVVEFSELDKPRVRFLRKVLSILLMETEVEDLSLIFTRVSDNPKLGVLREGLKLFISHFLLKNAQAHRSADEANVLREKADLATKCLQGKASLRM [NOM1] | -1 | 0.759 |
| MAQEKMELDLEPDTSYGGTLRRSSSAPLIHGLSDLSQVFQPYTLRTRRNSTTIMSRHSLEEGLDMVNRETAHEREMQTAMQISQSWDESLSLSDSDFDKPEKLYSPKRIDFTPVSPAPSPTRGFGKMFVSSSGLPPSPVPSPRRFSRRSQSPVKCIRPSVLGPLKRKGEMETESQPKRLFQGTTNMLSPDAAQLSDLSSCSDILDGSSSSSGLSSDPLAKGSATAESPVACSNSCSSFILMDDLSPK [FAM122B] | 1.18 | -0.79 |
| MAARPITLGIDLGTTSVKAALLRAAPDDPSGFAVLASCARAARAEAAVESAVAGPQGREQDVSRILQALHECLAALPRPQLRSVVGIGVSGQMHGVVFWKTGQGCEWTEGGITPVFEPRAVSHLVTWQDGRCSSEFLASLPQPKSHLSVATGFGCATIFWLLKYRPEFLKSYDAAGTIHDYVVAMLCGLPRPLMSDQNAASWGYFNTQSQSWNVETLRSSGFPVHLLPDIAEPGSVAGRTSHMWFEIPKGTQVGVALGDLQASVYSCMAQRTDAVLNISTSVQLAASMPSGFQPAQTPDPTAPVAYFPYFNRTYLGVAASLNGGNVLATFVHMLVQWMADLGLEVEESTVYSRMIQAAVQQRDTHLTITPTVLGERHLPDQLASVTRISSSDLSLGHVTRALCRGIVQNLHSMLPIQQLQEWGVERVMGSGSALSRNDVLKQEVQRAFPLPMSFGQDVDAAVGAALVMLRRHLNQKES [SHPK] | -0.0429 | -0.108 |
